For 46 molecules, Counts/minute bound results are on record in patent US20040092720A1 (US Dept. of Health and Human Services, published 2004).

B1: Peptide C11 (peptide)
peptide: SSFYRLRFELR
B2: Peptide C30 (peptide)
peptide: AERSKTFT
B3: Peptide C9 (peptide)
peptide: SSFYRLRFELRYR
B4: Peptide C12 (peptide)
peptide: SSFYRLRFEL
B5: Peptide C8 (peptide)
peptide: SSFYRLRFELRYRA
B6: Peptide A4 (peptide)
peptide: AAGSHPSRWAGMGRRLLL
B7: Peptide C28 (peptide)
peptide: YRAERSKTFT
B8: Peptide C22 (peptide)
peptide: LRFELRYRAERSKTFT
B9: Peptide C14 (peptide)
peptide: SSFYRLRF
B10: Peptide C23 (peptide)
peptide: RFELRYRAERSKTFT
B11: Peptide C15 (peptide)
peptide: SSFYRLR
notes: also called SSFYRLR
B12: Peptide C7 (peptide)
peptide: SSFYRLRFELRYRAE
B13: Peptide C5 (peptide)
peptide: SSFYRLRFELRYRAERS
B14: Peptide C2 (peptide)
peptide: SSFYRLRFELRYRAERSKTF
B15: Peptide A3 (peptide)
peptide: AAGSHPSRWAGMGRRLLLR
B16: Peptide C20 (peptide)
peptide: YRLRFELRYRAERSKTFT
B17: Peptide C29 (peptide)
peptide: RAERSKTFT
B18: Peptide C6 (peptide)
peptide: SSFYRLRFELRYRAER
B19: Peptide C24 (peptide)
peptide: FELRYRAERSKTFT
B20: Peptide C21 (peptide)
peptide: RLRFELRYRAERSKTFT
B21: Peptide B34 (peptide)
peptide: PRSTPSLTTKAVLLVRKFQNA
notes: alanine-scan variant of the domain II 21-mer
B22: Peptide B41 (peptide)
peptide: PRSTPSLTTKAVLAVRKFQNS
notes: as for B21
B23: Peptide B42 (peptide)
peptide: PRSTPSLTTKAVALVRKFQNS
notes: as for B21
B24: Peptide B39 (peptide)
peptide: PRSTPSLTTKAVLLVAKFQNS
notes: as for B21
B25: Peptide B43 (peptide)
peptide: PRSTPSLTTKAALLVRKFQNS
notes: as for B21
B26: Peptide B40 (peptide)
peptide: PRSTPSLTTKAVLLARKFQNS
notes: as for B21
B27: Peptide B35 (peptide)
peptide: PRSTPSLTTKAVLLVRKFQAS
notes: as for B21
B28: Peptide B37 (peptide)
peptide: PRSTPSLTTKAVLLVRKAQNS
notes: as for B21
B29: Peptide B38 (peptide)
peptide: PRSTPSLTTKAVLLVRAFQNS
notes: as for B21
B30: Peptide B45 (peptide)
peptide: PRSTPSLTAKAVLLVRKFQNS
notes: as for B21
B31: Peptide B46 (peptide)
peptide: PRSTPSLATKAVLLVRKFQNS
notes: as for B21
B32: Peptide B44 (peptide)
peptide: PRSTPSLTTAAVLLVRKFQNS
notes: as for B21
B33: Peptide B47 (peptide)
peptide: PRSTPSATTKAVLLVRKFQNS
notes: as for B21
B34: Peptide B36 (peptide)
peptide: PRSTPSLTTKAVLLVRKFANS
notes: as for B21
B35: Peptide A2 (peptide)
peptide: AAGSHPSRWAGMGRRLLLRS
B36: Peptide C27 (peptide)
peptide: RYRAERSKTFT
B37: Peptide C10 (peptide)
peptide: SSFYRLRFELRY
B38: Peptide C4 (peptide)
peptide: SSFYRLRFELRYRAERSK
B39: Peptide C18 (peptide)
peptide: SFYRLRFELRYRAERSKTFT
B40: Peptide A5 (peptide)
peptide: AAGSHPSRWAGMGRRLL
B41: Peptide C25 (peptide)
peptide: ELRYRAERSKTFT
B42: Peptide C16 (peptide)
peptide: SSFYRL
notes: also called SSFYRL
B43: Peptide C26 (peptide)
peptide: LRYRAERSKTFT
B44: Peptide C3 (peptide)
peptide: SSFYRLRFELRYRAERSKT
B45: Peptide C13 (peptide)
peptide: SSFYRLRFE
B46: Peptide C19 (peptide)
peptide: FYRLRFELRYRAERSKTFT

The target in the experiment is T1, recombinant human IL-6 (human, UniProt P05231 30-212, labeled with radioactive iodine).
T1 construct: Labeled probe in solution, added to wells that carry the synthetic peptides; also called IL-6 ligand; Interleukin-6
The experiment is described as follows: radioiodinated IL-6 on peptide array. The method, then: Synthetic peptide arrays were constructed in 96-well microtiter plates in accordance with the method set forth in WO 91/02714 (Saxinger), and used to test the binding of recombinant human IL-6 that had been labeled with radioactive iodine (radiolabeling by standard methods). After incubating the radiolabeled IL-6 ligand in a well with each synthetic peptide, a washing step was performed to remove unbound label, and the relative level of radioactivity remaining in each well of the plate was evaluated to determine the relative affinity of each peptide for IL-6 ligand.
For the molecule B1, the Counts/minute bound was found to be 1130 counts/minute.

As for B2, the Counts/minute bound stood at 1200 counts/minute.

Take B3: the Counts/minute bound worked out at 2170 counts/minute. B4: the Counts/minute bound is 1030 counts/minute. The figure for B5 is 2510 counts/minute; for B6 it is 5280 counts/minute. The figure for B7 is 2400 counts/minute; for B8 it is 9610 counts/minute.

For the molecule B9, the Counts/minute bound was 952 counts/minute. In the case of B10, the Counts/minute bound was determined as 5310 counts/minute. The figure for B11 is 991 counts/minute. B12: the Counts/minute bound is 1820 counts/minute.

For the molecule B13, the Counts/minute bound was 4710 counts/minute. The figure for B14 is 13800 counts/minute; for B15 it is 8010 counts/minute. The figure for B16 is 7570 counts/minute; for B17 it is 1430 counts/minute; for B18 it is 2650 counts/minute. To B19 belongs 5110 counts/minute; to B20, 5990 counts/minute. As to B21, the Counts/minute bound worked out at 11400 counts/minute. The figure for B22 is 3760 counts/minute; for B23 it is 3840 counts/minute. In the case of B24, the Counts/minute bound amounted to 10800 counts/minute.

For B25, the Counts/minute bound stood at 7160 counts/minute. B26: the Counts/minute bound stood at 4540 counts/minute. The figure for B27 is 13200 counts/minute; for B28 it is 11600 counts/minute; for B29 it is 11100 counts/minute.

As to B30, the Counts/minute bound came to 7490 counts/minute. The figure for B31 is 7680 counts/minute. On to B32, for which the Counts/minute bound stood at 19500 counts/minute. To B33 belongs 8570 counts/minute; to B34, 10100 counts/minute. Take B35: the Counts/minute bound came out at 9760 counts/minute. To B36 belongs 3150 counts/minute. The figure for B37 is 1350 counts/minute; for B38 it is 7620 counts/minute; for B39 it is 12800 counts/minute. To B40 belongs 2750 counts/minute; to B41, 2200 counts/minute; to B42, 865 counts/minute.

For B43, the Counts/minute bound was 6380 counts/minute. On to B44, for which the Counts/minute bound turned out to be 8210 counts/minute. To B45 belongs 1020 counts/minute; to B46, 10100 counts/minute.
